Columns and labels:
[1] = target: ACSL4-acyl-CoA synthetase long-chain family member 4 (ACSL4), transcript variant 2 (human) (UniProt O60488); test: ProtoArray, GST-treated control array
[2] = target: AP1S1-adaptor-related protein complex 1, sigma 1 subunit (AP1S1), transcript variant 1 (human) (UniProt P61966); test: ProtoArray, GST-treated control array
[3] = target: C1QTNF6-C1q and tumor necrosis factor related protein 6 (C1QTNF6), transcript variant 1 (human) (UniProt Q9BXI9); test: ProtoArray, GST-treated control array
C1QTNF6-C1q and tumor necrosis factor related protein 6 (C1QTNF6), transcript variant 1 (human), sequence (Q9BXI9 47-278, change not shown): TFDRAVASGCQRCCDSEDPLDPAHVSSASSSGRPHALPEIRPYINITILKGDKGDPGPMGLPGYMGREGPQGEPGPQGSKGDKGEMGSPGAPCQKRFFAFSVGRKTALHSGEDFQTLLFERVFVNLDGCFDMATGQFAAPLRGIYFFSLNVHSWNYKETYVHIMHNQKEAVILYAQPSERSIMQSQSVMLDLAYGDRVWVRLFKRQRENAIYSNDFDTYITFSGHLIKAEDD

[4] = target: CALN1-calneuron 1 (CALN1), transcript variant 1 (human) (UniProt Q9BXU9); test: ProtoArray, GST-treated control array
CALN1-calneuron 1 (CALN1), transcript variant 1 (human), sequence (Q9BXU9 whole entry, change not shown): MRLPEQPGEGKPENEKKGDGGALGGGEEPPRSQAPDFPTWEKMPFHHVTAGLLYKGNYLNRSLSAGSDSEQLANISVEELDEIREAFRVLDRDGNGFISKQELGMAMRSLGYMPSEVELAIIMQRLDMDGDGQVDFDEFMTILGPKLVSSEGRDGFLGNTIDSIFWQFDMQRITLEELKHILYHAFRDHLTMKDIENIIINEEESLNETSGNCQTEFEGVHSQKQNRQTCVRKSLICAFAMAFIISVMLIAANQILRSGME

[5] = target: CDK10-cyclin-dependent kinase (CDC2-like) 10 (CDK10), transcript variant a (human) (UniProt Q15131); test: ProtoArray, GST-treated control array
CDK10-cyclin-dependent kinase (CDC2-like) 10 (CDK10), transcript variant a (human), sequence (Q15131 whole entry, change not shown): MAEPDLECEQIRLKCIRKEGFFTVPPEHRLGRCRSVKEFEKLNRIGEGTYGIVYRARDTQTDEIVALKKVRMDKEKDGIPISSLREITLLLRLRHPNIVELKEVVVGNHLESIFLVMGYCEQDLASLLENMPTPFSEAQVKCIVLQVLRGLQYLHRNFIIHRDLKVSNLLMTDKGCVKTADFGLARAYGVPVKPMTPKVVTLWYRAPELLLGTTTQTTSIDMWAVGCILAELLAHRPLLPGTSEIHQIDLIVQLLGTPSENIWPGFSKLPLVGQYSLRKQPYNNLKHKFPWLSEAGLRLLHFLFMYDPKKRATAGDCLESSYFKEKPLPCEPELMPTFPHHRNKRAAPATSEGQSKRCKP

[6] = target: CRB3-crumbs homolog 3 (Drosophila) (CRB3), transcript variant 2 (human) (UniProt Q9BUF7); test: ProtoArray, GST-treated control array
CRB3-crumbs homolog 3 (Drosophila) (CRB3), transcript variant 2 (human), sequence (Q9BUF7 27-120, change not shown): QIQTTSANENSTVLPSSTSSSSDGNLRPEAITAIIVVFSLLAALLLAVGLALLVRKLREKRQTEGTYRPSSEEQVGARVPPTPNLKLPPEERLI

[7] = target: DNTT-deoxynucleotidyltransferase, terminal (DNTT), transcript variant 1 (human) (UniProt P04053); test: ProtoArray, GST-treated control array
[8] = target: DYNC2LI1-dynein, cytoplasmic 2, light intermediate chain 1, mRNA (cDNA clone MGC:12166 IMAGE:3828551), complete cds (human) (UniProt Q8TCX1); test: ProtoArray, GST-treated control array
[9] = target: GYPC-glycophorin C (Gerbich blood group) (GYPC), transcript variant 2 (human) (UniProt P04921); test: ProtoArray, GST-treated control array
GYPC-glycophorin C (Gerbich blood group) (GYPC), transcript variant 2 (human), sequence (P04921 other isoform, or with tags, fused parts or gaps mutant): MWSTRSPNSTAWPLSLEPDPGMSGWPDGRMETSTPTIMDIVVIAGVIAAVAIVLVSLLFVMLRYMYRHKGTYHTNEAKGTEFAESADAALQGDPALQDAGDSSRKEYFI

[10] = target: LARP6-La ribonucleoprotein domain family, member 6 (LARP6), transcript variant 2 (human) (UniProt Q9BRS8); test: ProtoArray, GST-treated control array
LARP6-La ribonucleoprotein domain family, member 6 (LARP6), transcript variant 2 (human), sequence (Q9BRS8 other isoform, or with tags, fused parts or gaps mutant): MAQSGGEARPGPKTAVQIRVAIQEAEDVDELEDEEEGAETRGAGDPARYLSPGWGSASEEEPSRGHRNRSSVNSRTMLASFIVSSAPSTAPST

[11] = target: LPAL2-lipoprotein, Lp(a)-like 2 (LPAL2), transcript variant 1 (human) (UniProt Q16609); test: ProtoArray, GST-treated control array
[12] = target: NME1-non-metastatic cells 1, protein (NM23A) expressed in (NME1), transcript variant 2 (human) (UniProt P15531); test: ProtoArray, GST-treated control array
NME1-non-metastatic cells 1, protein (NM23A) expressed in (NME1), transcript variant 2 (human), sequence (P15531 whole entry, change not shown): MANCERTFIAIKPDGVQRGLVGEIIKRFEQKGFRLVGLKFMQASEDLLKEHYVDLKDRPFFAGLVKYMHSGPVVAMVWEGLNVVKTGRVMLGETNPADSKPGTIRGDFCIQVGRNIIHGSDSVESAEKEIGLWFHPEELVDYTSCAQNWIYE

[13] = target: NME7-non-metastatic cells 7, protein expressed in (nucleoside-diphosphate kinase) (NME7), transcript variant 2 (human) (UniProt Q9Y5B8); test: ProtoArray, GST-treated control array
[14] = target: PAEP-progestagen-associated endometrial protein (placental protein 14, pregnancy-associated endometrial alpha-2-globulin, alpha uterine protein), transcript variant 2 (PAEP) (human) (UniProt P09466); test: ProtoArray, GST-treated control array
PAEP-progestagen-associated endometrial protein (placental protein 14, pregnancy-associated endometrial alpha-2-globulin, alpha uterine protein), transcript variant 2 (PAEP) (human), sequence (P09466 19-180, change not shown): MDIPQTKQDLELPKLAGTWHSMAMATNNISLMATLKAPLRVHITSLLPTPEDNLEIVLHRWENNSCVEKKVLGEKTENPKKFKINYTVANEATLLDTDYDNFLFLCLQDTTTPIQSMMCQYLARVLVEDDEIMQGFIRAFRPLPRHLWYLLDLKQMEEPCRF

[15] = target: PHF20L1-PHD finger protein 20-like 1 (PHF20L1), transcript variant 3 (human) (UniProt A8MW92); test: ProtoArray, GST-treated control array
[16] = target: RTN1-reticulon 1 (RTN1), transcript variant 3 (human) (UniProt Q16799); test: ProtoArray, GST-treated control array
RTN1-reticulon 1 (RTN1), transcript variant 3 (human), sequence (Q16799 other isoform, or with tags, fused parts or gaps mutant): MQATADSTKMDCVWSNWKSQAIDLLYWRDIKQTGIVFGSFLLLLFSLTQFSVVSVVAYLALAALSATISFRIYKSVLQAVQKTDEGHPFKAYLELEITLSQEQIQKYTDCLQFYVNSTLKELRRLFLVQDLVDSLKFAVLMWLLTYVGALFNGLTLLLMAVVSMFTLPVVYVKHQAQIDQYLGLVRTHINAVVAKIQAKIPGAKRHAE

[17] = target: T1, TMEM32-transmembrane protein 32 (TMEM32) (human) (UniProt Q8N4V1); test: ProtoArray, GST-treated control array
T1 sequence (looked up): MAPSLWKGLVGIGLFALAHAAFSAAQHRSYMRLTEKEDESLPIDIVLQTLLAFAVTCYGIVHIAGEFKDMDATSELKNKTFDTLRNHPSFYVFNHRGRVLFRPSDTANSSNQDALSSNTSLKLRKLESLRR

[18] = target: VPS29-vacuolar protein sorting 29 homolog (S. cerevisiae) (VPS29), transcript variant 1 (human) (UniProt Q9UBQ0); test: ProtoArray, GST-treated control array
[19] = target: ZNF695-zinc finger protein 695 (ZNF695) (human) (UniProt Q8IW36); test: ProtoArray, GST-treated control array
[20] = target: BLCAP, G9a-methylated (human) (UniProt P62952); test: ProtoArray methylated with G9a SET domain
BLCAP, G9a-methylated (human), sequence (P62952 whole entry, the tested form may be a part): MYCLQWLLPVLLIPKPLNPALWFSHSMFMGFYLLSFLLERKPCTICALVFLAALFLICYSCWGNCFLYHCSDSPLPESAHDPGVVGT

[21] = target: C12orf60, G9a-methylated (human) (UniProt Q5U649); test: ProtoArray methylated with G9a SET domain
C12orf60, G9a-methylated (human), sequence (Q5U649 whole entry, the tested form may be a part): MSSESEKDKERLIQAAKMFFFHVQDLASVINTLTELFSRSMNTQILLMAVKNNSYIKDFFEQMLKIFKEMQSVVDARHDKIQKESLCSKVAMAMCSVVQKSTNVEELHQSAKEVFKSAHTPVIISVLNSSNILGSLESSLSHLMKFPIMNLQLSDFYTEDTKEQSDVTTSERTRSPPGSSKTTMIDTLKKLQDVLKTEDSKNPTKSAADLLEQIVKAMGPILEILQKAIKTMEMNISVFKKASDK

[22] = target: CRYZL1, G9a-methylated (human) (UniProt O95825); test: ProtoArray methylated with G9a SET domain
[23] = target: CTXN1, G9a-methylated (human) (UniProt P60606); test: ProtoArray methylated with G9a SET domain
CTXN1, G9a-methylated (human), sequence (P60606 whole entry, the tested form may be a part): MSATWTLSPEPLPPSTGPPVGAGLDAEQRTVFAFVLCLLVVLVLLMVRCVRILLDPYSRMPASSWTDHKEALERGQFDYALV

[24] = target: DNTT, G9a-methylated (human) (UniProt P04053); test: ProtoArray methylated with G9a SET domain
[25] = target: GFOD1, G9a-methylated (human) (UniProt Q9NXC2); test: ProtoArray methylated with G9a SET domain
[26] = target: GNPTAB, G9a-methylated (human) (UniProt Q3T906); test: ProtoArray methylated with G9a SET domain
GNPTAB, G9a-methylated (human), sequence (Q3T906 whole entry, the tested form may be a part): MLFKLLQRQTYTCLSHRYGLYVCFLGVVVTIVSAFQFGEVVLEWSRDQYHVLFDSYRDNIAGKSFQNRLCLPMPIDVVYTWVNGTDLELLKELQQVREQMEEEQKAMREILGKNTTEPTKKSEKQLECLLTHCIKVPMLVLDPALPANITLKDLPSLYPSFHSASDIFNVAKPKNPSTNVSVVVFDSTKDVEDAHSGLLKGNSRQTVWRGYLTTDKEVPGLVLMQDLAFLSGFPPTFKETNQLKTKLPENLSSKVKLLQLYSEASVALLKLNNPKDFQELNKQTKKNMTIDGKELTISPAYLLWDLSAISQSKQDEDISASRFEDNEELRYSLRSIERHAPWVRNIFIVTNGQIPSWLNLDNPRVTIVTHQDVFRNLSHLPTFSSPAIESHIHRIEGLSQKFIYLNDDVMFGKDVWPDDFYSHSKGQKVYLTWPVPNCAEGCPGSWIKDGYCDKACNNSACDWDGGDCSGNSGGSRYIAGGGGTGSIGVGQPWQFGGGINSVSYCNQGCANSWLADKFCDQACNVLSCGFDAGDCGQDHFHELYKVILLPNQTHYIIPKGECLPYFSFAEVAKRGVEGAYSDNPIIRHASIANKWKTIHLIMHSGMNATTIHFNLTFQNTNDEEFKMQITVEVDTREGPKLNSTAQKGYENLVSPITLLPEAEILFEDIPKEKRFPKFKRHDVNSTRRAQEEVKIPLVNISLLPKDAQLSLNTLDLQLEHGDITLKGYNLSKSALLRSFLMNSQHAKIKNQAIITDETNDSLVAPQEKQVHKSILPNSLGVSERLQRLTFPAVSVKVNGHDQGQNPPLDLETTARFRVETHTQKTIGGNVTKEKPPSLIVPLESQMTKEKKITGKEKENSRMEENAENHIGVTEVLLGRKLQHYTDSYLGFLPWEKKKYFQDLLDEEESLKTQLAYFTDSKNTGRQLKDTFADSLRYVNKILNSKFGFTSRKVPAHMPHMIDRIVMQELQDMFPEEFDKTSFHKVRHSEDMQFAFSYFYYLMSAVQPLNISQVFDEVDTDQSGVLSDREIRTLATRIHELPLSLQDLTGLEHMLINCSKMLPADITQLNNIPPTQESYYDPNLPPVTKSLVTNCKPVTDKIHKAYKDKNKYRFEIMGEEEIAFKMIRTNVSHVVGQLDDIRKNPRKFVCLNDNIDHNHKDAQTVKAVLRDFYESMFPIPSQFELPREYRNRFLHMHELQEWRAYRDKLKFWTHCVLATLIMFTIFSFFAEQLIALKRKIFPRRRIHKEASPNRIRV

[27] = target: HIC2, G9a-methylated (human) (UniProt Q96JB3); test: ProtoArray methylated with G9a SET domain
[28] = target: HPCAL4, G9a-methylated (human) (UniProt Q9UM19); test: ProtoArray methylated with G9a SET domain
[29] = target: LTC4S, G9a-methylated (human) (UniProt Q16873); test: ProtoArray methylated with G9a SET domain
[30] = target: Magmas, G9a-methylated (human) (UniProt Q9Y3D7); test: ProtoArray methylated with G9a SET domain
Magmas, G9a-methylated (human), sequence (Q9Y3D7 whole entry, the tested form may be a part): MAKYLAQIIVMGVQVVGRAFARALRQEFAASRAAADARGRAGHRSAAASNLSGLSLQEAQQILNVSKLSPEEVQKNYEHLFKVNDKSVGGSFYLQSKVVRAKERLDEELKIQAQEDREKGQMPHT

[31] = target: PPARG, G9a-methylated (human) (UniProt P37231); test: ProtoArray methylated with G9a SET domain
PPARG, G9a-methylated (human), sequence (P37231 29-505 limits assumed): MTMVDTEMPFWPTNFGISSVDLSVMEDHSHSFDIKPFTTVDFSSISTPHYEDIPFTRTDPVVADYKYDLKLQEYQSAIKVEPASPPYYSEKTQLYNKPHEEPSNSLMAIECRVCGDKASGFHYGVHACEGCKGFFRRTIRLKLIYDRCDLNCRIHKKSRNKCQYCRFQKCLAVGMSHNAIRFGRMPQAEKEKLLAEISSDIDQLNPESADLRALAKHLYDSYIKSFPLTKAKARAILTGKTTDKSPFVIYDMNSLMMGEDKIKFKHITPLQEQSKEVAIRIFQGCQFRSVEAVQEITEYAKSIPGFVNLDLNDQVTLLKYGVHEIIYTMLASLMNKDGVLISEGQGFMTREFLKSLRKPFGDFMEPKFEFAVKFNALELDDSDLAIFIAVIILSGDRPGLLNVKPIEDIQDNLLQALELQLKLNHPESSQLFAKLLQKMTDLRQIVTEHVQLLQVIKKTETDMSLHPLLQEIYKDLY

[32] = target: RHBDD1, G9a-methylated (human) (UniProt Q8TEB9); test: ProtoArray methylated with G9a SET domain
RHBDD1, G9a-methylated (human), sequence (Q8TEB9 whole entry, the tested form may be a part): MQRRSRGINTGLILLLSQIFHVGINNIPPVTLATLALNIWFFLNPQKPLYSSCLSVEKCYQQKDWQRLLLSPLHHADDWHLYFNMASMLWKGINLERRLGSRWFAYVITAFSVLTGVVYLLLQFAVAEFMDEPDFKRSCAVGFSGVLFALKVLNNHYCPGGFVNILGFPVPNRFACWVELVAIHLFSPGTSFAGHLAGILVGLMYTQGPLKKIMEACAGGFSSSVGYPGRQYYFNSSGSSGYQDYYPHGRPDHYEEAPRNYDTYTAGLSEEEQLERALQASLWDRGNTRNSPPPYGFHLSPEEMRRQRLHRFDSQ

[33] = target: RPL14, G9a-methylated (human) (UniProt P50914); test: ProtoArray methylated with G9a SET domain
[34] = target: SERPINB2, G9a-methylated (human) (UniProt P05120); test: ProtoArray methylated with G9a SET domain
[35] = target: TGDS, G9a-methylated (human) (UniProt O95455); test: ProtoArray methylated with G9a SET domain
TGDS, G9a-methylated (human), sequence (O95455 whole entry, the tested form may be a part): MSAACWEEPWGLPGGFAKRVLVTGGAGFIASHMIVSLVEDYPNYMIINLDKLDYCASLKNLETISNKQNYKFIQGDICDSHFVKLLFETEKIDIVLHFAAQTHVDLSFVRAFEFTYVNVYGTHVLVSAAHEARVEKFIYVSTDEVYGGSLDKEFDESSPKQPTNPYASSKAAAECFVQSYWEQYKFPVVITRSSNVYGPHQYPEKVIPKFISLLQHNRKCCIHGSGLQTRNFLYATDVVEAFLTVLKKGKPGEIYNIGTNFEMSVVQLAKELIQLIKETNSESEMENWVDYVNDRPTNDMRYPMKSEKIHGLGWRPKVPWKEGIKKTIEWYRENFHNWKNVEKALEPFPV

[36] = target: ZBP1, G9a-methylated (human) (UniProt Q9H171); test: ProtoArray methylated with G9a SET domain
[37] = target: ZNF695, G9a-methylated (human) (UniProt Q8IW36); test: ProtoArray methylated with G9a SET domain

AP1S1-adaptor-related protein complex 1, sigma 1 subunit (AP1S1), transcript variant 1 (human), sequence (P61966 whole entry, change not shown, one chain of several): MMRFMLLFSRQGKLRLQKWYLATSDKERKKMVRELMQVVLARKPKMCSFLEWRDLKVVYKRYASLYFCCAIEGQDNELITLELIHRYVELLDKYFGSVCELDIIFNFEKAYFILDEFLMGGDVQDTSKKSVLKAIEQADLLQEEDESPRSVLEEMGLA

3× Flag-3×MBT (designed binder)
GST Average SNR [1]: 1.41 | GST Average SNR [2]: 1.2 | GST Average SNR [3]: -0.38 | GST Average SNR [4]: -0.055 | GST Average SNR [5]: 0.366 | GST Average SNR [6]: -0.25 | GST Average SNR [7]: 0.378 | GST Average SNR [8]: -0.778 | GST Average SNR [9]: 0.081 | GST Average SNR [10]: -1.03 | GST Average SNR [11]: 0.282 | GST Average SNR [12]: 1.06 | GST Average SNR [13]: 0.543 | GST Average SNR [14]: 0.998 | GST Average SNR [15]: 1.13 | GST Average SNR [16]: 0.954 | GST Average SNR [17]: 1.5 | GST Average SNR [18]: 1.09 | GST Average SNR [19]: 1.5 | G9a Average SNR [20]: 26.4 | G9a Average SNR [21]: 12.4 | G9a Average SNR [22]: 11.2 | G9a Average SNR [23]: 19.7 | G9a Average SNR [24]: 49.9 | G9a Average SNR [25]: 16.4 | G9a Average SNR [26]: 16.5 | G9a Average SNR [27]: 16.7 | G9a Average SNR [28]: 11.5 | G9a Average SNR [29]: 14.1 | G9a Average SNR [30]: 13.9 | G9a Average SNR [31]: 12.8 | G9a Average SNR [32]: 12.3 | G9a Average SNR [33]: 18.4 | G9a Average SNR [34]: 17.9 | G9a Average SNR [35]: 13.6 | G9a Average SNR [36]: 14.7 | G9a Average SNR [37]: 20.3

From patent US20140274782A1, “AFFINITY REAGENTS AND METHODS FOR DETECTION, PURIFICATION, AND PROTEOMIC ANALYSIS OF METHYLATED PROTEINS” (The Board of Trustees of the Leland Stanford Junior …, priority 2013, published 2014)
